This is an account of results in US7217548B2, “N-acetylglucosaminlytransferase and polynucleotide encoding the same” (National Institute of Advanced Industrial Science and …, priority 2000, dated 2007).

This data set concerns T1, CC(=O)N[C@@H](C)C(=O)N[C@@H](C)C(=O)N1CCC[C@H]1C(=O)N[C@H](C(=O)N1CCC[C@H]1C(=O)N[C@H](C(=O)N[C@@H](C)C(=O)N[C@@H](C)C(=O)N1CCC[C@H]1C(N)=O)C(C)C)[C@@H](C)O[C@H]1O[C@H](CO)[C@@H](O)[C@H](O)[C@@H]1O.
T1 construct: 595 amino acids from 66: Ser thereof (66: Ser to 660: Thr), respectively; Ig kappa chain secretory signal (N); made in house; host or cells: HEK293T (transient, secreted into serum-free medium)
The data set is described as follows: Substrate specificity and kinetic parameters of solubilized human OMGnT enzyme (L). Particulars: other: 125 mM MOPS pH7.3, 0.2 mM UDP-GlcNAc, 7.5 mM MnCl2, 37° C., 2 hours, pH 7.3. Format: biochemical. The protocol: […] […] The reaction mixture was then filtered with a filter Ultrafree-MC (Millipore) having a pore size of 0.22 μm to remove solids, and analyzed by Wakopak 5C18-200 column (4.6×250 mm, Wako Pure Chemical Industries, Ltd.). The separation was carried out using concentration gradient with Solution A and Solution B at a flow rate of 1.0 ml/min. […] Peptide detection was carried out at 214 nm, and the radioactivity of each fraction was assayed using a liquid scintillation counter.
The activity of GnT-1 was assayed with a method by Yoshida et al. [Yoshida, S., Suzuki, M., Yamano, S., Takeuchi, M., Ikenaga, H., Kioka, N., Sakai, H., and Komano, T., Glycobiology, (1999), 9, 53–58] as described below. A 20 μl reaction solution was prepared by adding an enzyme source thereto so as to have a final concentration of 100 mM MES (pH 6.0), 20 mM MnCl2, 5 μM Manα1–6(Manα1–3)Manα1–6(Manα1–3)Manβ1–4GlcNAcβ1–4GlcNAc-PA(M5GN2-PA; Takara Shuzo, PA-Sugar Chain 017), 1 mM UDP-GlcNAc, 100 mM GlcNAc, 5 mM AMP, 1% Triton X-100, and 0.2% BSA. The reaction solution was incubated at 37° C. for 1 hour, and the reaction was terminated in boiling water. Thereafter, the reaction solution was analyzed by a reverse phase HPLC (Cosmosil 5C18-AR column) available from Nacalai Tesque. […]

His-Xpress-sOMGnT(L) (Homo sapiens; M623V), sequence (chain, as listed by the source M623V): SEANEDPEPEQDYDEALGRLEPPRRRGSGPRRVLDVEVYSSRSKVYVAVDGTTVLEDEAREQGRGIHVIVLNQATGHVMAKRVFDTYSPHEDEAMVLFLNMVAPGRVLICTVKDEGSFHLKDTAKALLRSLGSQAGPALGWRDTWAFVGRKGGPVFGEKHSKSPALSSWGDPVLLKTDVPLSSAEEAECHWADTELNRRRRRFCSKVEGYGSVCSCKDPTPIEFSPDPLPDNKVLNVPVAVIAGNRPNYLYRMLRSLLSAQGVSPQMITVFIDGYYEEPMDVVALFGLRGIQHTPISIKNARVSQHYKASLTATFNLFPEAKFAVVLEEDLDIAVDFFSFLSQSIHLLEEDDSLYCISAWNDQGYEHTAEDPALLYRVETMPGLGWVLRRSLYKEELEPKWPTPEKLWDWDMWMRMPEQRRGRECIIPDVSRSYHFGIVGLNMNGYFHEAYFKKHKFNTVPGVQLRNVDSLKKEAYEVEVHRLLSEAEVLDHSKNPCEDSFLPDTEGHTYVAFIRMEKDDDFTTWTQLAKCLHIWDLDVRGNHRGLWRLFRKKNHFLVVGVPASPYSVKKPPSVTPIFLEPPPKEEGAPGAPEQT

As for “His-Xpress-sOMGnT(L) (Homo sapiens; M623V)”, the Km (as a rule, the substrate concentration at which the rate is half of its maximum) was found to be 1850 µM.
